Each block holds one substance with its values, some of them ahead of it.
What was measured:
Assay in all cases: cell-based or functional assay
[1] = target: chemokine receptor CCR6 (human) (UniProt P51684)
[2] = target: chemokine receptor CCR2 (human) (UniProt P41597)
[3] = target: chemokine receptor CCR8 (human) (UniProt P51685)
[4] = target: human chemokine receptor CCR5 (human) (UniProt P51681)
[5] = target: chemokine receptor CCR4 (human) (UniProt P51679)

EC50, calcium mobilisation in CCR6-CHO cells [1]: 1270 pM
Substance: CCL20/MIP-3alpha (from UniProt P78556 27-96) (ligand)

calcium mobilisation, share of THP-1 cells responding [2]: > 95%
Substance: CCL2/MCP-1 (from UniProt P13500 24-99) (ligand)

Substance: GS-U83A (from UniProt P52460 5-97) (ligand)
blocking of CCL1 (1 nM) induced chemotaxis of HUT78 cells by 100 nM pre-treatment [3]: 10% | reduction of HIV-1 JRCSF infection of CEM-NKR-CCR5-luc cells at 1 uM [4]: 93%

EC50, calcium mobilisation in CCR4-CHO cells [5]: 240 pM | chemotaxis of HUT78 cells, concentration of maximal efficacy [5]: 1 nM
Substance: CCL17/TARC (from UniProt Q92583 24-94) (ligand)

Substance: GSRIEGR-U83A (from UniProt P52460 5-97) (ligand)
blocking of CCL22 (10 nM) induced chemotaxis of HUT78 cells by 100 nM pre-treatment [5]: 25%

Source: patent publication US20110098212A1
